Assay results taken from the supplement of paper PMC9732359.
± gives the uncertainty stated by the source.

Assay: protein stability index of a GFP-peptide fusion (yeast GPS) (PSI 1-4); higher = more stable; sorted into four equal gates, so the index is relative within each strain
Procedure, shortened: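 Sequencing reads from sorted gates were used to score each peptide. The library consisted of tiled 17-residue yeast protein peptides fused downstream of GFP on a Cherry-expressing plasmid, pooled and carried in yeast. Mid-log cultures in leucine-free medium were split into four equal gates by GFP/Cherry ratio, and each gate's plasmids were PCR-amplified and Illumina-sequenced. The protein stability index adds up, over all gates, the read frequency multiplied by the gate number.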

Row | Sequence | protein stability index (doa10∆) | protein stability index (pdr5∆) | protein stability index (san1∆) | protein stability index (ubr1∆)
1 | WKEVMFDPSKDVLINEL [CDC53] | 2.41 ± 0.074 | 1.87 ± 0.052 | 1.8 ± 0.12 | 1.91 ± 0.073
2 | TLLVIRRLHKVLRPFLL [SNF2] | 1.26 ± 0.12 | 1.34 ± 0.093 | 1.34 ± 0.16 | 1.09 ± 0.08
3 | NNNQKIDDNYIVVVIEI [SRB8] | 3.16 ± 0.078 | 3.01 ± 0.065 | 3.29 ± 0.083 | 3.11 ± 0.1
4 | KRVPNPNFLGNCNIKDF [SWP82] | 2.05 ± 0.051 | 2.36 ± 0.04 | 2 ± 0.056 | 2.22 ± 0.032
5 | CEQQPSQEREFSLLVKA [SIN4] | 3.01 ± 0.077 | 3.07 ± 0.08 | 2.94 ± 0.054 | 3.04 ± 0.045
6 | QGDVEQIAAQSPVELSR [SMC1] | 2.66 ± 0.087 | 2.92 ± 0.067 | 3.08 ± 0.063 | 2.83 ± 0.073
7 | IVPDLIINPHAIPSRMT [RPB2] | 1.81 ± 0.048 | 2 ± 0.042 | 1.75 ± 0.068 | 2.16 ± 0.047
8 | VVLFNRQPSLHRLSILS [RPO31] | 1.65 ± 0.054 | 1.88 ± 0.053 | 1.44 ± 0.096 | 1.63 ± 0.047
9 | SFKLCTLLIAIRGSNRD [YML103C/NUP188] | 1.31 ± 0.048 | 1.78 ± 0.061 | 2.01 ± 0.077 | 2.41 ± 0.046
10 | TFENINSLFYLKWSACT [IRR1] | 1.26 ± 0.082 | 1.35 ± 0.082 | 1.27 ± 0.17 | 1.21 ± 0.051
11 | IQVLTEASSLGYLDDSE [IRR1] | 1.3 ± 0.068 | 1.56 ± 0.057 | 1.76 ± 0.1 | 1.42 ± 0.055
12 | DQNEFLLERTREIHNEA [FAS2] | 3.12 ± 0.092 | 3.13 ± 0.08 | 2.99 ± 0.063 | 3.08 ± 0.067
13 | NKFMSIFLKRKDFTNKN [SRB8] | 2.38 ± 0.067 | 2.2 ± 0.082 | 3.03 ± 0.058 | 2.58 ± 0.065
14 | GFIENCNGSALVEARSL [MTR3] | 2.66 ± 0.1 | 2.83 ± 0.085 | 2.23 ± 0.12 | 2.15 ± 0.12
15 | RIANIEQNHLDNNYNTA [YDL088C/ASM4] | 3.11 ± 0.065 | 3.18 ± 0.071 | 3.08 ± 0.044 | 3.03 ± 0.064
16 | VIQIVTGIFMAMHYSSN [COB] | 1.32 ± 0.078 | 1.16 ± 0.069 | 1.33 ± 0.17 | 1.46 ± 0.088
17 | EKELKIFTDAGRVYRPL [RPB2] | 3.04 ± 0.067 | 3.44 ± 0.082 | 3.09 ± 0.063 | 3.34 ± 0.042
18 | CKRELAFVKQKNDSLEK [YIL149C/MLP2] | 3.26 ± 0.16 | 3.33 ± 0.17 | – | 3.43 ± 0.19
19 | EFNFTNLQAKPLVGKPK [YAR002W/NUP60] | 2.1 ± 0.06 | 2.35 ± 0.055 | 2.27 ± 0.077 | 2.25 ± 0.042
20 | IGHLIKTRFKGSQFIVV [SMC2] | 3.5 ± 0.12 | 3.05 ± 0.084 | 3.38 ± 0.087 | 3.14 ± 0.08
21 | TVKENESDSKLQCHISG [UBP6] | 3.28 ± 0.098 | 3.3 ± 0.11 | 3.05 ± 0.087 | 3.15 ± 0.1
22 | DNIDYAPMRLATAALEI [YJL039C/NUP192] | 2.35 ± 0.058 | 2.44 ± 0.041 | 2.29 ± 0.077 | 2.31 ± 0.042
23 | EDGTFSVLYPDELEDDT [RRP43] | 3.23 ± 0.086 | 3.1 ± 0.077 | 3.16 ± 0.061 | 3.11 ± 0.063
24 | LARASGNYVIIIGHNPD [RPL2A] | 2.8 ± 0.087 | 2.89 ± 0.089 | 2.85 ± 0.096 | 2.68 ± 0.097
25 | QIDYKLESFQAVYNKLT [RPS7A] | 2.26 ± 0.043 | 2.4 ± 0.051 | 2.41 ± 0.063 | 2.85 ± 0.037
26 | PFSYLIDETMMDKPLNF [SRB5] | 2.88 ± 0.11 | 3.09 ± 0.073 | 2.83 ± 0.067 | 2.97 ± 0.054
27 | NVSLIKIEGVATPQDAQ [RPL33A] | 2.74 ± 0.082 | 2.52 ± 0.061 | 2.38 ± 0.11 | 2.37 ± 0.059

Row | Sequence | protein stability index (doa10∆) | protein stability index (pdr5∆) | protein stability index (san1∆) | protein stability index (ubr1∆)
28 | LPELWALLNFVLPKIFN [SNF2] | 2.38 ± 0.074 | 1.89 ± 0.062 | 2.07 ± 0.098 | 1.51 ± 0.038
29 | VENDTFIERNFTPQEIE [FAS2] | 2.87 ± 0.083 | 2.32 ± 0.062 | 2.15 ± 0.068 | 3.18 ± 0.05
30 | EDYELSPQAVSSFVRQE [PRE1] | 2.29 ± 0.14 | 2.42 ± 0.15 | 2.31 ± 0.093 | 2.53 ± 0.083
31 | SLINSHLKILASSNFPF [RPC82] | 2.64 ± 0.066 | 2.3 ± 0.075 | 2.28 ± 0.073 | 2.02 ± 0.042
32 | IILKTRQINKLIDSLPG [SRB7] | 2.31 ± 0.071 | 2.11 ± 0.047 | 2.62 ± 0.067 | 2.51 ± 0.058
33 | FNLNLPPSSFGRSHTRN [REC8] | 3.35 ± 0.11 | 2.51 ± 0.1 | 3.04 ± 0.058 | 3.27 ± 0.19
34 | MSDSIISFAAFILADAG [RPP1B] | 1.62 ± 0.069 | 1.35 ± 0.049 | 1.31 ± 0.2 | 1.26 ± 0.057
35 | NWRSFNAKIIDAEVAQF [SRP68] | 2.53 ± 0.071 | 2.56 ± 0.048 | 2.01 ± 0.073 | 2.43 ± 0.098
36 | GSNKAQISIIDIWSISK [YML031W/NDC1] | 2.55 ± 0.056 | 2.76 ± 0.054 | 2.88 ± 0.054 | 2.97 ± 0.048
37 | LNTFGSKICLSHFSLDQ [ITC1] | 2.48 ± 0.06 | 2.18 ± 0.042 | 2.09 ± 0.095 | 2.33 ± 0.039
38 | PFFKYIDDANVTRKQED [RPC37] | 2.55 ± 0.091 | 2.12 ± 0.064 | 2.34 ± 0.083 | 2.52 ± 0.061
39 | IGGMRVDENGDPIWQHQ [RET1] | 3.13 ± 0.2 | 3.38 ± 0.19 | 2.88 ± 0.26 | 3.42 ± 0.092
40 | ITYDKQEPSASQVKDSV [SRP68] | 3.14 ± 0.046 | 3.12 ± 0.062 | 2.98 ± 0.053 | 2.99 ± 0.071
41 | IGFTIKEYENHSGELMR [SMC1] | 2.53 ± 0.14 | 2.79 ± 0.059 | 2.06 ± 0.12 | 2.86 ± 0.14
42 | MVCETDVPSEDDPTQLV [RPO21] | 3.03 ± 0.069 | 3.24 ± 0.12 | 3.37 ± 0.1 | 2.56 ± 0.11
43 | LEQDLHFENAKVIDLDT [YIL149C/MLP2] | 3.08 ± 0.18 | 3.32 ± 0.16 | 2.65 ± 0.23 | 3.13 ± 0.11
44 | MLLANISVARKIYDAFP [DIS3] | 1.69 ± 0.04 | 1.91 ± 0.041 | 2 ± 0.093 | 1.73 ± 0.041
45 | EKTFLHLPCTIEAEEAE [RPN8] | 1.56 ± 0.078 | 2.05 ± 0.071 | 2.48 ± 0.12 | 2.48 ± 0.07
46 | FERLVPRGTAKLIIHRK [SMC3] | 3.01 ± 0.12 | 2.98 ± 0.12 | – | 2.86 ± 0.03
47 | DDDEVDYSEIQRSRRKF [DSN1] | 2.66 ± 0.1 | 3.66 ± 0.23 | 3.04 ± 0.2 | 2.75 ± 0.16
48 | KAKNPLTHSTPKNFGIG [RPL8B] | 3.31 ± 0.13 | 3.35 ± 0.12 | 3.14 ± 0.074 | 3.08 ± 0.05
49 | SKNRIIVEADEKKGIVQ [RET1] | 1.21 ± 0.14 | 1.47 ± 0.061 | – | 1.59 ± 0.077
50 | GVLYQGNIQISEYNFLE [DIS3] | – | 3.05 ± 0.16 | 2.6 ± 0.18 | 2.96 ± 0.28
51 | KFFQKKIHLYEKKLEDY [YGL172W/NUP49] | 2.83 ± 0.093 | 2.75 ± 0.089 | 2.71 ± 0.071 | 2.94 ± 0.089
52 | KEIYYTPDPSELAAKEE [FAS2] | 2.631 ± 0.023 | 2.748 ± 0.023 | 2.601 ± 0.024 | 2.531 ± 0.017
53 | RFNAKVSMVKRAIDSLI [CDC53] | 1.86 ± 0.071 | 2.12 ± 0.074 | 2.17 ± 0.12 | 2 ± 0.042
